Measured values from patent US20140105889A1 (published 2014).
Substitutions are numbered along the chain they refer to. Names may count otherwise.

T1: human FcγRIIa type R (human, UniProt P12318 36-217)
T1 construct: also called FcgRIIaR; FcγRIIa(R)
T1 chain: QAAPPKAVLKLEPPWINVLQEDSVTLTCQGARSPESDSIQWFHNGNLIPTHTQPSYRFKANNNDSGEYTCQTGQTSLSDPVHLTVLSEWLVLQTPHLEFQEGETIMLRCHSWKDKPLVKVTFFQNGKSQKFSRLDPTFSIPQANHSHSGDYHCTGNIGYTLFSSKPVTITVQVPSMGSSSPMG

T2: human FcγRIIa type H (human, UniProt P12318 36-217)
T2 construct: also called FcgRIIaH; FcγRIIa(H)
T2 sequence: T1 chain with R133H

T3: human FcγRIIb (human, UniProt P31994 43-217)
T3 construct: also called FcgRIIb; FcγIIB
T3 sequence: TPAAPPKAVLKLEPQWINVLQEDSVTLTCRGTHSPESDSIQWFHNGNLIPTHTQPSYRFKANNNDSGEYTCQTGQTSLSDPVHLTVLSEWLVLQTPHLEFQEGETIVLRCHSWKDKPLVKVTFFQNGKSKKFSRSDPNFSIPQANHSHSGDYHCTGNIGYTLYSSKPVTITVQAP

B1: GpH7-B3 Y300P / GpL16-k0 (antibody, human IgG1)
heavy: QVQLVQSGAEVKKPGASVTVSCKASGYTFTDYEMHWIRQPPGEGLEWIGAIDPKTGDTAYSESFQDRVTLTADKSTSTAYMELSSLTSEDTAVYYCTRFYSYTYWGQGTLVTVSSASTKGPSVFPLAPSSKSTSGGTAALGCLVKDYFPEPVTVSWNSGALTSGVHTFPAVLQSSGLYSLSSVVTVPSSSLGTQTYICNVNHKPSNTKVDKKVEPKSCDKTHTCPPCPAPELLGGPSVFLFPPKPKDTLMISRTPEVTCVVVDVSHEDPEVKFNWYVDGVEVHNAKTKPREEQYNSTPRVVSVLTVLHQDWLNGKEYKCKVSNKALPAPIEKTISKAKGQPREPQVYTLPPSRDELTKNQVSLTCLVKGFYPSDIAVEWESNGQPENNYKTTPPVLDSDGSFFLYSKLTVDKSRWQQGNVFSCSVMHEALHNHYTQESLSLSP
light: DIVMTQSPLSLPVTPGEPASISCQASESLVHSNRNTYLHWYLQKPGQSPQLLIYKVSNRFSGVPDRFSGSGSGTDFTLKISRVEAEDVGVYYCSQNTHVPPTFGQGTKVEIE
notes: B3 variant: anti-glypican-3 IgG1 (constant region B3 = G1d with K439E) with one substitution, EU numbering; also called B3 variant Y300P; copies: 2 + 2
B2: GpH7-B3 Y300R / GpL16-k0 (antibody, human IgG1)
heavy: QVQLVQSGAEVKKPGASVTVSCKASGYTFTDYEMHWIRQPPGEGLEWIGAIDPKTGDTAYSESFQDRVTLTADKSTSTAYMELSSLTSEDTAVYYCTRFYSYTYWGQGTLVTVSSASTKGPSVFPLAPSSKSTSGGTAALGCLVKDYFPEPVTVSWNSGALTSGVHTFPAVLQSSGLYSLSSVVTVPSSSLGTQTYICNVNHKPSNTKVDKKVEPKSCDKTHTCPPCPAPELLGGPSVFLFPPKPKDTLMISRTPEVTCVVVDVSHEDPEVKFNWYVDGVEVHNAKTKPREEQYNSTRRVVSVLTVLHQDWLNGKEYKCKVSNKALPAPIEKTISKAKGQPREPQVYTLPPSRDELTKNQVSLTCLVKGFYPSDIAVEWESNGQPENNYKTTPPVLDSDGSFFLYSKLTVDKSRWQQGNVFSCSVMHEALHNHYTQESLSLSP
light: B1 light
notes: B3 variant: anti-glypican-3 IgG1 (constant region B3 = G1d with K439E) with one substitution, EU numbering; also called B3 variant Y300R; copies: 2 + 2
B3: IL6R-BP082/IL6R-L (antibody, human IgG1)
heavy: QVQLQESGPGLVKPSETLSLTCAVSGHSISHDHAWSWVRQPPGEGLEWIGFISYSGITNYNPSLQGRVTISRDNSKNTLYLQMNSLRAEDTAVYYCARSLARTTAMDYWGEGTLVTVSSASTKGPSVFPLAPSSKSTSGGTAALGCLVKDYFPEPVTVSWNSGALTSGVHTFPAVLQSSGLYSLSSVVTVPSSSLGTQTYICNVNHKPSNTKVDKKVEPKSCDKTHTCPPCPAPDLLGGDSVFLFPPKPKDTLMISRTPEVTCVVVDVSHEDPEVKFNWYVDGVEVHNAKTKPREEQYNSTYRVVSVLTVLHQDWLNGKEYKCKVSNKALPKPIEKTISKAKGQPREPQVYTLPPSRDELTKNQVSLTCLVKGFYPSDIAVEWESNGQPENNYKTTPPVLDSDGSFFLYSKLTVDKSRWQQGNVFSCSVMHEALHNHYTQESLSLSP
light: DIQMTQSPSSLSASVGDRVTITCRASQDISSYLNWYQQKPGKAPKLLIYYTSRLHSGVPSRFSGSGSGTDFTFTISSLQPEDIATYYCQQGNTLPYTFGQGTKVEIK
B4: IL6R-BP089/IL6R-L (antibody, human IgG1)
heavy: B3 heavy with D235E, L236Y, K328A
light: B3 light
B5: IL6R-BP130/IL6R-L (antibody, human IgG1)
heavy: B3 heavy with V325M
light: B3 light
B6: IL6R-BP085/IL6R-L (antibody, human IgG1)
heavy: B3 heavy with D235E, G239D
light: B3 light
B7: IL6R-BP087/IL6R-L (antibody, human IgG1)
heavy: B3 heavy with D235E, L236Y
light: B3 light
B8: IL6R-BP131/IL6R-L (antibody, human IgG1)
heavy: B3 heavy with G239D
light: B3 light
B9: IL6R-BP084/IL6R-L (antibody, human IgG1)
heavy: B3 heavy with D235E, V325M
light: B3 light
B10: IL6R-BP152/IL6R-L (antibody, human IgG1)
heavy: B3 heavy with L236Y, G239D, Y298D, K328A, K332R
light: B3 light
B11: IL6R-2B261/IL6R-L (antibody, human IgG1)
heavy: B3 heavy with Y298D, K332A
light: B3 light
B12: IL6R-BP181/IL6R-L (antibody, human IgG1)
heavy: B3 heavy with P273G, K328A
light: B3 light
B13: IL6R-2B253/IL6R-L (antibody, human IgG1)
heavy: B3 heavy with V325M, K332A
light: B3 light
B14: IL6R-BP178/IL6R-L (antibody, human IgG1)
heavy: B3 heavy with G239D, P273G
light: B3 light
B15: IL6R-BP146/IL6R-L (antibody, human IgG1)
heavy: B3 heavy with D235E, L236Y, G239D, K328A, K332A
light: B3 light
B16: IL6R-BP083/IL6R-L (antibody, human IgG1)
heavy: B3 heavy with D235E, Y298D
light: B3 light
notes: The variants were built on IL6R-BF648 (P238D), so it is read as P238D
B17: IL6R-BF648/IL6R-L (antibody, human IgG1)
heavy: not shown
light: B3 light
B18: IL6R-BP086/IL6R-L (antibody, human IgG1)
heavy: B3 heavy with D235E, K328A
light: B3 light
B19: IL6R-B3/IL6R-L (antibody, human IgG1)
heavy: not shown
light: B3 light
notes: Parent polypeptide
B20: IL6R-BP088/IL6R-L (antibody, human IgG1)
heavy: B3 heavy with D235E, G239D, K328A
light: B3 light
B21: IL6R-BP151/IL6R-L (antibody, human IgG1)
heavy: B3 heavy with L236Y, G239D, K328A, K332R
light: B3 light
B22: IL6R-BP176/IL6R-L (antibody, human IgG1)
heavy: B3 heavy with K328D
light: B3 light

Assays:
[1] = molecular target: T4, human FcγRIIIa(F) (human, UniProt P08637 17-208, limits assumed); assay: SPR (Biacore), antibody captured, FcγR as analyte
T4 construct: also called FcgRIIIaF; FcγRIIIa allotype F158
T4 sequence (P08637 other isoform, or with tags, fused parts or gaps limits assumed): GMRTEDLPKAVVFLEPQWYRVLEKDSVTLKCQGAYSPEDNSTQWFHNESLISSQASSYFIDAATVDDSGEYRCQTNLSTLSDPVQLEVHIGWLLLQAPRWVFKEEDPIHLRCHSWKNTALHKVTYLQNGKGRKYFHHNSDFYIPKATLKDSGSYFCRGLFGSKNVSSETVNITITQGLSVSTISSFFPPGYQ

[2] = molecular target: T5, human FcγRIa (human, UniProt P12314 16-292, limits assumed); assay: SPR (Biacore), FcγR over captured antibody; binding amount / that of IL6R-BF648/IL6R-L x100
T5 construct: also called FcgRIa; CD64
T5 sequence (P12314 16-292 limits assumed): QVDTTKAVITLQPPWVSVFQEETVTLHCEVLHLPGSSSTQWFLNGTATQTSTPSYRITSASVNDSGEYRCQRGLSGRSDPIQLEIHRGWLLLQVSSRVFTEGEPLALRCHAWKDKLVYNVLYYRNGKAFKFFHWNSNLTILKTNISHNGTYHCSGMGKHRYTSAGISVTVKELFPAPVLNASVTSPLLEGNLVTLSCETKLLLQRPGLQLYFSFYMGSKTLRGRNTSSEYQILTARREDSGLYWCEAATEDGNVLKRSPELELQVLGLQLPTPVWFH
Description: (§1) According to the following method, relative binding activities were calculated for the results of analyzing interactions with the respective FcγRs.

[3] = molecular target: T1, human FcγRIIa type R; assay: as above
Description: as §1

[4] = molecular target: T2, human FcγRIIa type H; assay: as above
Description: as §1

[5] = molecular target: T3, human FcγRIIb; assay: as above
Description: as §1

[6] = molecular target: T6, human FcγRIIIa type V (human, UniProt P08637 17-208, limits assumed); assay: as above
T6 construct: Allotype V158 was used; also called FcgRIIIaV; FcγRIIIa(V)
T6 sequence (P08637 other isoform, or with tags, fused parts or gaps limits assumed): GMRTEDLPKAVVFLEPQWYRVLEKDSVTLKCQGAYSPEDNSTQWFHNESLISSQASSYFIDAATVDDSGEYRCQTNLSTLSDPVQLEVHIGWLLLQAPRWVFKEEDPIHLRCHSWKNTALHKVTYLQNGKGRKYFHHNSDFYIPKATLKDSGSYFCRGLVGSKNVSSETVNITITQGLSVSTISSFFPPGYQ
Description: as §1

Binder	relative binding activity (amount bound / amount bound by GpH7-B3/GpL16-k0 x100) [1]	relative binding activity [2]	relative binding activity [3]	relative binding activity [4]	relative binding activity [5]	relative binding activity [6]
B1	-1 % of GpH7-B3/GpL16-k0					
B2	12 % of GpH7-B3/GpL16-k0					
B3		74 % of IL6R-BF648/IL6R-L	126 % of IL6R-BF648/IL6R-L	106 % of IL6R-BF648/IL6R-L	136 % of IL6R-BF648/IL6R-L	87 % of IL6R-BF648/IL6R-L
B4		43 % of IL6R-BF648/IL6R-L	222 % of IL6R-BF648/IL6R-L	186 % of IL6R-BF648/IL6R-L	147 % of IL6R-BF648/IL6R-L	136 % of IL6R-BF648/IL6R-L
B5		104 % of IL6R-BF648/IL6R-L	272 % of IL6R-BF648/IL6R-L	224 % of IL6R-BF648/IL6R-L		
B6		19 % of IL6R-BF648/IL6R-L	279 % of IL6R-BF648/IL6R-L	158 % of IL6R-BF648/IL6R-L	152 % of IL6R-BF648/IL6R-L	104 % of IL6R-BF648/IL6R-L
B7		33 % of IL6R-BF648/IL6R-L	163 % of IL6R-BF648/IL6R-L	179 % of IL6R-BF648/IL6R-L	137 % of IL6R-BF648/IL6R-L	158 % of IL6R-BF648/IL6R-L
B8		33 % of IL6R-BF648/IL6R-L	364 % of IL6R-BF648/IL6R-L	253 % of IL6R-BF648/IL6R-L		118 % of IL6R-BF648/IL6R-L
B9		109 % of IL6R-BF648/IL6R-L	203 % of IL6R-BF648/IL6R-L	162 % of IL6R-BF648/IL6R-L	141 % of IL6R-BF648/IL6R-L	106 % of IL6R-BF648/IL6R-L
B10		34 % of IL6R-BF648/IL6R-L	638 % of IL6R-BF648/IL6R-L	548 % of IL6R-BF648/IL6R-L	178 % of IL6R-BF648/IL6R-L	
B11		100 % of IL6R-BF648/IL6R-L	94 % of IL6R-BF648/IL6R-L	91 % of IL6R-BF648/IL6R-L	115 % of IL6R-BF648/IL6R-L	87 % of IL6R-BF648/IL6R-L
B12		108 % of IL6R-BF648/IL6R-L	362 % of IL6R-BF648/IL6R-L	150 % of IL6R-BF648/IL6R-L		122 % of IL6R-BF648/IL6R-L
B13		155 % of IL6R-BF648/IL6R-L	288 % of IL6R-BF648/IL6R-L	207 % of IL6R-BF648/IL6R-L	156 % of IL6R-BF648/IL6R-L	126 % of IL6R-BF648/IL6R-L
B14		51 % of IL6R-BF648/IL6R-L	653 % of IL6R-BF648/IL6R-L	259 % of IL6R-BF648/IL6R-L	179 % of IL6R-BF648/IL6R-L	
B15			445 % of IL6R-BF648/IL6R-L	203 % of IL6R-BF648/IL6R-L	156 % of IL6R-BF648/IL6R-L	
B16		50 % of IL6R-BF648/IL6R-L	87 % of IL6R-BF648/IL6R-L	91 % of IL6R-BF648/IL6R-L	122 % of IL6R-BF648/IL6R-L	107 % of IL6R-BF648/IL6R-L
B17		100 % of IL6R-BF648/IL6R-L	100 % of IL6R-BF648/IL6R-L	100 % of IL6R-BF648/IL6R-L	100 % of IL6R-BF648/IL6R-L	100 % of IL6R-BF648/IL6R-L
B18		72 % of IL6R-BF648/IL6R-L	155 % of IL6R-BF648/IL6R-L	116 % of IL6R-BF648/IL6R-L	137 % of IL6R-BF648/IL6R-L	123 % of IL6R-BF648/IL6R-L
B19		145 % of IL6R-BF648/IL6R-L	625 % of IL6R-BF648/IL6R-L	1600 % of IL6R-BF648/IL6R-L	58 % of IL6R-BF648/IL6R-L	3260 % of IL6R-BF648/IL6R-L
B20		25 % of IL6R-BF648/IL6R-L	377 % of IL6R-BF648/IL6R-L	166 % of IL6R-BF648/IL6R-L	161 % of IL6R-BF648/IL6R-L	122 % of IL6R-BF648/IL6R-L
B21		39 % of IL6R-BF648/IL6R-L	705 % of IL6R-BF648/IL6R-L	621 % of IL6R-BF648/IL6R-L		221 % of IL6R-BF648/IL6R-L
B22		102 % of IL6R-BF648/IL6R-L	201 % of IL6R-BF648/IL6R-L	128 % of IL6R-BF648/IL6R-L	147 % of IL6R-BF648/IL6R-L	
